These results are taken from publication PMC4743974, “Xenobiotic Compounds Degradation by Heterologous Expression of a Trametes sanguineus Laccase in Trichoderma atroviride” (PLoS ONE, 2016).

Substrate in the series: CCn1c(=NN=c2sc3cc(S(=O)(=O)O)ccc3n2CC)sc2cc(S(=O)(=O)O)ccc21
Kind of series: purified protein. It counts as biochemical, Trametes sanguinea. The settings on record: 100 mM sodium succinate pH 4, room temperature (routine assay conditions).

One may read the Km as the substrate concentration at which the rate is half of its maximum. Broadly, the kcat is the number of substrate molecules converted per active site and unit of time at saturation. As a reminder, the kcat/Km is the turnover number divided by the Michaelis constant.

B1: Recombinant Lcc (TaLcc3 laccase) (Trametes sanguinea) (protein)
chain: AIGPKADLVISDAVVNPDGTPRDAVVVNGAFPGPLISGKKGDHFQLNVINKLTNHTMLKTTSIHWHGLFQEHTNWADGPAFVNQCPIASGHSFLYDFHVPDQAGTYWYHSHLSTQYCDGLRGPLVVYDPHDPQAHLYDVDNDDTVITLADWYHVAAKVGPQFPRGADSTLINGRGRAASDSTAELTVITVEHGKRYRFRLVSISCDPNHTFSIDGHNMTIIEVEGVNSKPLTVDSIQIFAAQRYSFMLNANQPVDNYWIRANPSGGTVGFEGGINSAILRYKGAPDAEPTNTTAPTSVIPLVETNLHPLKPMQVPGRSGIGNVDYAKTLNFNFNGTNFFINNATFTPPTVPVLLQILSGAHSAQDLLPPGSVYTLPPHSAIEITMPATTMAPGSPHPFHLHGHVFAVVRSAGSTEYNYHDPIFRDVVSTGQPGDSVTIRFMTDNPGPWFLHCHIDFHLEAGFAIVFAEDVNEIKYANPVPPSWAELCPIYDKLPESDH
notes: full cDNA with native signal peptide (predicted cleaved between residues 20 and 21), no tag mentioned; secreted by Trichoderma atroviride IMI206040 strain Talcc3; purified; ORF 1557 bp, 519 amino acids
Consider B1, for which the Michaelis constant (Km) was determined as 48.10 ± 4.9 µM, the kcat stood at 69.7 ± 3.47 s⁻¹ and the specificity constant (kcat/Km) was found to be 1.44e+06 M⁻¹ s⁻¹.
